The data set can be described thus: label from the status in PepcDB records.

On to “MKKIIAITGFAMLGGGLREGLSLLVTWPQHFWITCLINIVGAFVLSLITNLLPARLPVSEDIVIGMSVGFVGSFTTFSTFTFETLQSFQSGHSVLALSYVAASLGLGLLAGLAGNFLSTYWLPKEEF”, for which the protein production result is given as “failed”.

Take “MKKIICYLSLSALSLSSFSQTQIANGDFENWSSSEYCSALDSLDNFLTGQAFFYLNAKNETDAIECPALPFTYKTTDKQSGSYALKLGPQYFDDKAYYNFVTLGEAAYFEEEGSVASFGIPFTGRPSKLTGYYKCTAGAVGDELQIKVFGSNFTSEDPLFYGVFTASENQPMYEKFEIDLVYDPTDPNNAVYLSMLITVGNLNDGSIDENTVAFIDNLVFEYDATAATSYTPVSPIHVFASNKTISFSEHVSDIHVVDMVGANNIQEAASTKTLHAETLNSGLYIVTYNYKGNYFSKKVVIE”: the protein production entry is reported as “failed”.

With “MKKILAICGIELSLIFKKPQNYLIMFAAPLLLTFVFGSMLSGNDDKVRLAIVDQDDTILSQHYIRQLKAHDDMYVFENMSESKASEKLKQKKIAGIIVISRSFQTQLEKGKHPELIFRHGPELSEAPMVKQYAESALATLNIQVTAAKTASQTAGENWKAAYKTVFAKKHEDIVPAVTRQTLSDKKEGAEASDTASRAAGFSILFVMLTMMGAAGTILEARKNGVWSRLLTASVSRAEIGAGYVLSFFVIGWIQFGILLLSTHWLFGINWGNPAAVIVLVSLFLLTVVGIGLMIAANVRTPEQQLAFGNLFVIATCMVSGMYWPIDIEPKFMQSIAEFLPQKWAMSGLTEIIANGARVTDILGICGILLAFAAITFAAGLKALRA”, the protein production result was “failed”.

As to “MKKILLSLITAAVLLSCQSSRDTSHKYTAITPGVEWLDTNNEKINAHGGGILYHEGIYYWYGECKSDSTYWNPNVPGWECYRTEAGGVNCYSSKDLLNWKYEGLVLQPEISDTQSDLHPSKVLERPKVIYNDKTKKFVMWLHVDSDDYNKAAAGVAVSDSPTGVFTYLGSMHPNGQISRDMTLFKDDDGKAYHIYSSEQNSTLYISLLSDDYLKPSGTFTRNFAGKFREAPAVFKHNGLYYVISSGCTGWSPNEAEYAVATQILGPWTVKGNPCVGKDADKTFYGQSTHVLPIQGKKDAYIAMFDKWNKTDLIHSTYIWLPIQFREDGSMAIQWLDSWSPDTYEF”, the protein production entry was “failed”.

Turning to “MKKISIEERPDWRATAEREGFNFHTIDGERYWDERGYYLFTEQQITRDLEAPTQALHQMCMDAVARVVDSEELLHQLAIPPAFFDVIQTSWKQGHPHLYARFDFAYDGTGPAKMYEINADTPTSLMEAGAFQLLWLEEQMARGVLPAHASQFNSIAEDLVRAFAEFPGASPFYFAAMSGSVEDRVTTDFLRRMAAHVGIDARHIDIEDIGLNDQGRFVDLDGRWIERLFKLHAWEHIFHEAFGKNVTASGTQFVEPAWKAILSNKGILPLLWQFNEGHPNLLPSRVDQDVTKPVPKGWVRKPYFSREGANIEMRTPGDQVIAVDGPYTDAPYILQAYSPLPKFGDSYTLIGSWVIGDLASGIGIREDDSLITKDTSRFLPHVVID”, the protein production result is listed as “failed”.

Turning to “MKKKDRYTGHRYAKPNRSSENDIYSNSDRYARTTGNKKYKKRKKKWSAKKKIIVTLCIILGIILMIAGIVFAYIKATLSQLGRVPLPEAPETLGISSEVAEKYKDLDVTNIALFGVDSREDNDIGRSDALMILSIDRVHNKIKLTSIARDTYVTVDGYGQTKINHAYAYEGPELAIKTINENFDMNIQGFVTVNFSQLAEIIDYLGGINIAVTEEEREVANRLIQELGVQCEPITESGESVHLTGDQAVIFARNRDTGGDSERTGRQRKVLSAMFDQAKAIDVTQYPGLINMVLSQSVTSLSDNDMLGIGTWAVTSGATMEQMSLPNENCNSSGEIIDGVWYYVYDLDLATDLLHDFIYEENSAD”, the protein production entry is reported as “failed”.

Consider “MKKKKIWALIWRKSAFRWLLISIFTAIIISACSYNVSKDENGKVKTVKSHFTPCYVVKHKMGETCVPQNPQRIVVLAQTTLANVLALGVKPIGILGADLPTYLQQARDIQVVGEGWEPDVEKILLLKPDLILGKEYHRTQYNTLSQIAPTVLLEWNGTPSWKQHLEDVAQVLNKTDQAKSLMRNYHQRLEEFKIKMGDRLKNLQISYIDILVGYIWCDVKNSFAGTILADAGLQHPSAQEVVTKGGYITFGLETMPMDADGDVIFTSHWMDEDGAKALKRNQNNPLWRKLKAVEQNQVYVVNRHFWRGSNILAAHKVIDDLFNYLVDAKS”, for which the protein production result is given as “failed”.

On to “MKKKQVLAVSSALMIGTTTALTGLPTPVMAQENTEVVQEAVVEENKTEQVPVEQKTENAEVQENITDKEQEETAENAETLKEESTKQETPATPEKEVVTEDKTVEASKNTEVKAGSIAIDETHFPDKVFREQIIAEFDKDGDSVLSVDEISKAQFLNLHGMKTISSLEGIQYLTNLQSLDVSTTSVSDLSPVKNSSLKRLDCRSSKVGSVDLTRYPNLEAFLCDNTSINSLDVSKNEKLNTLFADSTSISNLDVTNNPNLEQLSCSNTGLMELDVTHNPQLVTLDIGDTKVKTLDISKNPNLKQLSCYMTNIAELDVTKNTKLTRLFCHDTTIKKLDLSNNLELEMLRCGEIFEQGIRGLDISKNTKIKKLICDDLYWLNVGENKVLENNHAFVGNGYIDIKGNKIDLKKDVEQGIDISKVKVTANGTLDKDTGIITVDDVKKPVTYEYDCGTYKDGNVVLKVELSLNSQGEDNTAPTISANDVTLNVGDTFDPLANVTATDKEDGTITLTKDNIVANDVDTSKAGTYHVTYKVTDKNGASVKKTITVTVKQNTGDLNSAPIISANDVTLNVGDTFDPLANVTATDKEDGTIILTKDNIIANDVDTSKAGTYHVTFRVVDKNGAITEKTITVTVKEKATNKPVSPQQPQKPSKPTTPTKPSGQKNPVKTGDMTNVGLFTSMFAGSTGVLAVLFGKKRKRNKNN”, for which the protein production entry is “failed”.

For the sequence “MKKLLLTVIQIALLFIFARLINWVTALLHINIPGSIIGIVILFTLLHFNIIKLEWIELGAAWLLGELLLFFIPSAVGVIEYGDIMSKFGVSILLVVIISTFVVMVSTGTLTQLIAKRKEKKHTCSSEL”, the protein production entry is recorded as “failed”.

Turning to “MKKLLTVTFFTGMLTFFKMISGFIISKIVAIYTGPSGIVLFGQIQSIVSALNGVINSPVGPGIVRFTAENHRKGLEHCYKWWIAGLSWVCIISAIIIPLSITLSSHIAFWTLGSEKYSWVIILTACLLPLTAIGTFISSVINGFQNYKVYVLLGIISAFLSLIIMIALIVFGKINGALLAISVQNALIGGVMIIYASSQPWFNLRWLYGRVHKTYYKDIQRYIVMAITSAIVVPGSLIIVRNIIIHYVGWTEAGYWQAVWKISETYLAIITIALSTYYLPRLSSLSQKDDIIKEISSSLKIIIPLVMFFSMGIYLSRDFIISLLFTKEFLGARMLFQVQLIGDILKIASWLYAYVMISKGMTQLFVISEVLFSLLFISFSLVFIRCYGLIGVTYAYCLNYFIYLVFSVVVVKRAKYD”, the protein production entry is given as “failed”.

Turning to “MKKLSFFLIATLSLGACSTATSPTGRHQVFSGVSQQQLNQLGEQAFVEIKAKEKISGNVRQNAYVRCVVDALVTELPLQWRHVKWETVLFLNEEPNAFALPGGKVGVNTGIFRAAKNQEQLAAVLGHEIGHVVSRHHEERITWQLGTQAGLGLLGVLAGTAYGDSAATAVNQIGGLTAQAAFLLPGSRTQEREADIVGQRLMAQAGFDPIQAVYLWKNMLAIAGQRPPQWLSTHPDPTNRIRQLEQQSAVLASVYAQARDAGRVPHCSPAALEHHHHHH”, the protein production result is reported as “failed”.

On to “MKKLTSLFPLLFLIPLLASCAEEKQVYIVYFGEHKGDKAFHEIEEHHHSYLQSVKESEEDARASLLYSYKHSINGFAAELTPDQASKLEKLAEVVSVFKSHPRKYEAHTTRSWEFVGLEEEETDSDVPRRKNDADDRFRVGRNFLKKAKHGDGIIVGVLDSGVWPESKSFNDKGMGPVPKSWKGICQTGVAFNSSHCNRKIIGARYYVKGYERYYGAFNATANKDFLSPRDPDGHGSHTASTAVGRRVLGASALGGFAKGSASGGAPLARLAIYKACWAKPNAEKVEGNICLEEDMLAAIDDAIADGVHVISISIGTTEPFPFTQDGIAMGALHAVKRNIVVAASAGNSGPKPGTLSNLAPWIITVGASTLDRAFVGGLVLGNGYTIKTDSITAFKMDKFAPLVYASNVVVPGIALNETSQCLPNSLKPELVSGKVVLCLRGAGSRIGKGMEVKRAGGAGMILGNIAANGNEVPSDSHFVPTAGVTPTVVDKILEYIKTDKNPKAFIKPGKTVYKYQAAPSMTGFSSRGPNVVDPNILKPDITAPGLYILAAWSGADSPSKMSVDQRVAGYNIYSGTSMSCPHVAGAIALLKAIHPKWSSAAIRSALMTTAWMTNDKKKPIQDTTGLPANPFALGSGHFRPTKAADPGLVYDASYRAYLLYGCSVNITNIDPTFKCPSKIPPGYNHNYPSIAVPNLKKTVTVKRTVTNVGTGNSTSTYLFSVKPPSGISVKAIPNILSFNRIGQKQRFKIVIKPLKNQVMNATEKGQYQFGWFSWTDKVHVVRSPIAVSLA”, for which the protein production entry is recorded as “failed”.

As to “MKKMKTLTLFLSLLFSFPFVLSAQMVGETLQKVSAALDNRQWDQAVTLFRQAVNTNVEKAEMFYWTGVDKSLEVSSRIGRELAAYYKKSRSYDKAYLFYKELLQKSPNDVNCLVSCAEMEVCRGRESEALETYRKVLSLDADNLAANIFIGNYLYLKAEREKKQLEADYKKISAPTRMQYARYRDGLSRVMSTGYGKAREYLQKVISQFPSTEAQKTLERIKLIEKEVNR”, the protein production result is given as “failed”.

Turning to “MKKPNHSGSGQIRIIGGQWRGRKLPVPDSPGLRPTTDRVRETLFNWLAPVIVDAQCLDCFAGSGALGLEALSRYAAGATLIEMDRAVSQQLIKNLATLKAGNARVVNSNAMSFLAQKGTPHNIVFVDPPFRRGLLEETINLLEDNGWLADEALIYVESEVENGLPTVPANWSLHREKVAGQVAYRLYQREAQGESDAD”, the protein production result is reported as “not failed”.

As to “MKKRAIVAVIVLLLIGLDQLVKSYIVQQIPLGEVRSWIPNFVSLTYLQNRGAAFSILQDQQLLFAVITLVVVIGAIWYLHKHMEDSFWMVLGLTLIIAGGLGNFIDRVSQGFVVDMFHLDFINFAIFNVADSYLTVGVIILLIAMLKEEINGN”, the protein production entry is listed as “failed”.

On to “MKKRILSAVLVSGVTLGAATTVGAEDLSTKIAKQDSIISNLTTEQKAAQNQVSALQAQVSSLQSEQDKLTARNTELEALSKRFEQEIKALTSQIVARNEKLKNQARSAYKNNETSGYINALLNSKSISDVVNRLVAINRAVSANAKLLEQQKADKVSLEEKQAANQTAINTIAANMAMAEENQNTLRTQQANLEAATANLALQLASATEDKANLVAQKEAAEKAAAEALAQEQAAKVKAQEQAAQQAASVEAAKSAITPAPQATPAAQSSNAIEPAALTAPAAPSARPQTSYDSSNTYPVGQCTWGAKSLAPWAGNNWGNGGQWAYSAQAAGYRTGSTPMVGAIAVWNDGGYGHVAVVVEVQSASSIRVMESNYSGRQYIADHRGWFNPTGVTFIYPHLEHHHHHH”, for which the protein production entry is “failed”.

As for “MKKSSILILIIICLVGCKKGSNETTITGEIKGLGTDTLYLYGMDELYDRIDTIYVENDKFSYTTSVDTITSAYLLLKNRIEYPVFLDKGNKIKIKGDTINLNFLTISGNIYNEEFTDFQKALEDPADPSEKAGEETVDKRITVEKANTAEEMAEEFILQHHSSYVSLYLLDKYFVQKETPDFSKIKKLVEVMTGVLQDKPYIERLNETITQAEKSEIGKYAPFFSLPNAKGEKITRSSDAFKQKSLLINFWASWNDSISQKQSNSELREIYKKYKKNKYIGMLGISLDVDKQQWKDAIKRDTLDWEQVCDFGGLNSEVAKQYSIYKIPANILLSSDGKILAKNLRGEELKKKIENIVEEATEKEKKNKQKK”, the protein production result is given as “failed”.

“MKKTLKILAGFVAVVIIIALGIFTSRKLYQNHVDKINHIGKVMDSYKGVKVYYNGKKYAESHGKNYSKDGYYYGYKWQVEYIKRFYYEAKGHSMPNGFGNAKDFFDPKVGQGKLNKDRGLFQYKNGENEKPKADDILVFTDTKYGHVVIVTKVTDDTVEVIQQNMGNKTRDQFKLEYENGKYFVCGKRKPKGWLRKGLEHHHHHH”: the protein production result is “not failed”.

The values above are taken from a protein production outcome set (Wang et al. 2014).
